For 97 substances, Binding affinity results are on record in US20250011363A1, “OPTIMIZED SHORTENED PEPTIDE THAT BINDS TO ACETYLCHOLINE RECEPTOR, AND USE THEREOF” (SKINMED CO., LTD., priority 2021, published 2025).

This test addresses acetylcholine receptor (Homo sapiens, UniProt P02708). The experiment in a line: SPR binding affinity (RU) of optimized 5mer/6mer/7mer peptides, Examples 6-7. Particulars: SPR, 6mer-2 Bottom sequence. Put shortly: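 Binding response (RU) to the human acetylcholine receptor was measured by SPR. Each 5mer or 6mer library peptide was applied at 10 μM, with sequences drawn from top and bottom amino-acid combinations.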
On the technique in general: Surface plasmon resonance follows binding to a sensor surface in real time, without labels.

The mark [1] stands for this setting: Resonance Units, peptides tested at 10 μM.

Sequence of acetylcholine receptor (P02708 21-457): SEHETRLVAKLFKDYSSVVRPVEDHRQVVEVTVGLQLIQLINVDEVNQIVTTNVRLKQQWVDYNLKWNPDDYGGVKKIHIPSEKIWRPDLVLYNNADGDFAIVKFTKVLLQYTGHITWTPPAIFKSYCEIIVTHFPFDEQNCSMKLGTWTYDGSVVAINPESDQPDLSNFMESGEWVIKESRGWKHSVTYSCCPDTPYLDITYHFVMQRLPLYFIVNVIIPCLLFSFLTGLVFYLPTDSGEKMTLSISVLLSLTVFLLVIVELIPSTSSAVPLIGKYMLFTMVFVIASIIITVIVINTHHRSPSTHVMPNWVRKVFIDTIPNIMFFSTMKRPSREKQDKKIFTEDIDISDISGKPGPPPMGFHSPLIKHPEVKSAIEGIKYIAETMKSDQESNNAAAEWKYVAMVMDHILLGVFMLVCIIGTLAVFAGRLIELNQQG

Take 6mer-2-961 (KNTKKR): the Binding affinity under setting [1] turned out to be 21 Ru.
In the case of 6mer-2-962 (KKSNRK), the Binding affinity under setting [1] was 30 Ru.
6mer-2-963 (KAKHRR): the Binding affinity under setting [1] turned out to be 37 Ru.
The same measure, in the same setting: then 6mer-2-964 (KCEDRK), with 41 Ru; and 6mer-2-965 (KPWFKR), with 36 Ru.
As for 6mer-2-966 (KEDAKR), under setting [1], the Binding affinity amounted to 41 Ru.
In the case of 6mer-2-967 (RTSNKK), under setting [1], the Binding affinity came to 35 Ru.
As to 6mer-2-968 (RHWEKK), under setting [1], the Binding affinity was 39 Ru.
In the case of 6mer-2-969 (KATHKR), the Binding affinity under setting [1] was found to be 33 Ru.
Take 6mer-2-970 (KDDVRR): under setting [1], the Binding affinity amounted to 27 Ru.
The same measure, in the same setting: for 6mer-2-971 (KEMFRK) the value was 29 Ru; for 6mer-2-972 (KAMFRR), 38 Ru.
The same measure, in the same setting: then 6mer-2-973 (KCPIKK), with 41 Ru; and 6mer-2-974 (RFDDRR), with 38 Ru.
On to 6mer-2-975 (KKTMKK), for which, under setting [1], the Binding affinity was found to be 38 Ru.
On to 6mer-2-976 (RTTGKK), for which the Binding affinity under setting [1] turned out to be 26 Ru.
Take 6mer-2-977 (REMKRK): under setting [1], the Binding affinity turned out to be 30 Ru.
Turning to 6mer-2-978 (KEPHRR), the Binding affinity under setting [1] is given as 28 Ru.
For 6mer-2-979 (KKAFKK), under setting [1], the Binding affinity stood at 22 Ru.
Same read-out and setting: then 6mer-2-980 (KESGKR), with 34 Ru; and 6mer-2-981 (RCEIRK), with 32 Ru.
For 6mer-2-982 (RMHAKK), under setting [1], the Binding affinity worked out at 38 Ru.
On the same count and under the same terms, then 6mer-2-983 (RTWHRR), with 37 Ru.
The same measure, in the same setting: then 6mer-2-984 (KDMWKK), with 43 Ru.
Regarding 6mer-2-985 (REMNKR), the Binding affinity under setting [1] was determined as 34 Ru.
6mer-2-986 (KNWARR): the Binding affinity under setting [1] was found to be 27 Ru.
Regarding 6mer-2-987 (RCHPKK), the Binding affinity under setting [1] was 22 Ru.
Turning to 6mer-2-988 (KMCEKK), the Binding affinity under setting [1] is on record as 41 Ru.
For 6mer-2-989 (KAHNKR), under setting [1], the Binding affinity turned out to be 22 Ru.
Regarding 6mer-2-990 (RKKMKR), the Binding affinity under setting [1] was found to be 41 Ru.
Regarding 6mer-2-991 (KCHFRR), under setting [1], the Binding affinity turned out to be 30 Ru.
On the same count and under the same terms, for 6mer-2-992 (RMHFRR) the value was 33 Ru; for 6mer-2-993 (RHDVKK), 29 Ru.
On to 6mer-2-994 (KYCIKK), for which the Binding affinity under setting [1] was 41 Ru.
For the substance 6mer-2-995 (KFWEKK), where the note is “peptides at 10 μM”, the Binding affinity worked out at 38 Ru.
Still for that read-out and setting: for 6mer-2-996 (RHDARK) the value was 40 Ru; for 6mer-2-997 (KISFKK), 30 Ru.
Regarding 6mer-2-998 (KEMWKK), the Binding affinity (peptides at 10 μM) amounted to 43 Ru.
For 6mer-2-999 (RATIKR), the Binding affinity (peptides at 10 μM) came out at 31 Ru.
As to 6mer-2-1000 (KCHDKK), under “peptides at 10 μM”, the Binding affinity was found to be 41 Ru.
6mer-2-1001 (RKKFKK): the Binding affinity (peptides at 10 μM) stood at 37 Ru.
In the case of 6mer-2-1002 (RCNDKR), under “peptides at 10 μM”, the Binding affinity was 42 Ru.
Same read-out and setting: for 6mer-2-1003 (KPEWKR) the value was 42 Ru.
6mer-2-1004 (RDTHKR): for the setting “peptides at 10 μM”, the Binding affinity was 38 Ru.
Take 6mer-2-1005 (RFKARR): under “peptides at 10 μM”, the Binding affinity stood at 23 Ru.
On to 6mer-2-1006 (RATMRR), for which the Binding affinity (peptides at 10 μM) turned out to be 30 Ru.
6mer-2-1007 (RHTNKK): the Binding affinity (peptides at 10 μM) was determined as 42 Ru.
As for 6mer-2-1008 (RAWKKR), the Binding affinity (peptides at 10 μM) was found to be 38 Ru.
For the substance 6mer-2-1009 (KINPRK), the Binding affinity (peptides at 10 μM) was 34 Ru.
On to 6mer-2-1010 (RANHKK), for which the Binding affinity (peptides at 10 μM) was 36 Ru.
In the case of 6mer-2-1011 (RAEFRR), for the setting “peptides at 10 μM”, the Binding affinity is given as 22 Ru.
Still for that read-out and setting: for 6mer-2-1012 (KASAKK) the value was 30 Ru; for 6mer-2-1013 (KPPDKR), 23 Ru; for 6mer-2-1014 (RPPMRR), 34 Ru.
Same read-out and setting: for 6mer-2-1015 (RDEMKR) the value was 29 Ru; for 6mer-2-1016 (RNEEKR), 41 Ru; for 6mer-2-1017 (RAPVRR), 40 Ru.
As to 6mer-2-1018 (RPTKKK), the Binding affinity (peptides at 10 μM) is 24 Ru.
As for 6mer-2-1019 (RNTWKK), the Binding affinity (peptides at 10 μM) is listed as 23 Ru.
As for 6mer-2-1020 (KHDKKR), under “peptides at 10 μM”, the Binding affinity worked out at 21 Ru.
Take 6mer-2-1021 (RYTPKR): the Binding affinity (peptides at 10 μM) was determined as 39 Ru.
Regarding 6mer-2-1022 (KCNPRR), the Binding affinity (peptides at 10 μM) came out at 22 Ru.
As for 6mer-2-1023 (KAEFKR), the Binding affinity (peptides at 10 μM) came to 26 Ru.
For 6mer-2-1024 (RFHNKR), the Binding affinity (peptides at 10 μM) is given as 37 Ru.
On to 6mer-2-1025 (RCSHRR), for which, where the note is “peptides at 10 μM”, the Binding affinity was found to be 39 Ru.
The same measure, in the same setting: for 6mer-2-1026 (KENHRK) the value was 33 Ru; for 6mer-2-1027 (KTPVKK), 32 Ru.
Consider 6mer-2-1028 (KPEHRR), for which the Binding affinity (peptides at 10 μM) amounted to 41 Ru.
With 6mer-2-1029 (KEEFKK), the Binding affinity (peptides at 10 μM) is on record as 40 Ru.
For the substance 6mer-2-1030 (RAPFKK), the Binding affinity (peptides at 10 μM) is 28 Ru.
With 6mer-2-1031 (RAWERK), the Binding affinity (peptides at 10 μM) is on record as 33 Ru.
As to 6mer-2-1032 (KETVKR), the Binding affinity (peptides at 10 μM) came to 31 Ru.
On to 6mer-2-1033 (KMDEKK), for which the Binding affinity (peptides at 10 μM) was 28 Ru.
Take 6mer-2-1034 (KHSWRR): the Binding affinity (peptides at 10 μM) amounted to 38 Ru.
The same measure, in the same setting: for 6mer-2-1035 (RPPVKK) the value was 39 Ru.
Take 6mer-2-1036 (KAKNKR): the Binding affinity (peptides at 10 μM) amounted to 25 Ru.
On the same count and under the same terms, for 6mer-2-1037 (KIHWKK) the value was 26 Ru; for 6mer-2-1038 (KHWERK), 33 Ru.
For the substance 6mer-2-1039 (RNHFRK), under “peptides at 10 μM”, the Binding affinity amounted to 26 Ru.
Still for that read-out and setting: for 6mer-2-1040 (KYAWRK) the value was 36 Ru; for 6mer-2-1041 (RACDKR), 22 Ru; for 6mer-2-1042 (KKMFRK), 36 Ru.
On the same count and under the same terms, then 6mer-2-1043 (RDKGKK), with 40 Ru; and 6mer-2-1044 (KHTDKK), with 41 Ru; and 6mer-2-1045 (RHAHRR), with 41 Ru.
Turning to 6mer-2-1046 (RNSEKR), the Binding affinity (peptides at 10 μM) was 39 Ru.
Regarding 6mer-2-1047 (RHDDKR), the Binding affinity (peptides at 10 μM) stood at 28 Ru.
For the substance 6mer-2-1048 (RIHNRK), the Binding affinity (peptides at 10 μM) stood at 22 Ru.
For the substance 6mer-2-1049 (KMSPRR), the Binding affinity (peptides at 10 μM) came out at 26 Ru.
Regarding 6mer-2-1050 (KPPPRK), under “peptides at 10 μM”, the Binding affinity is 26 Ru.
For 6mer-2-1051 (RKHMRR), the Binding affinity (peptides at 10 μM) is given as 24 Ru.
Still for that read-out and setting: for 6mer-2-1052 (KAPARK) the value was 23 Ru.
As for 6mer-2-1053 (KEMGKK), the Binding affinity (peptides at 10 μM) came to 34 Ru.
Turning to 6mer-2-1054 (KKNKKR), the Binding affinity (peptides at 10 μM) was found to be 43 Ru.
Same read-out and setting: for 6mer-2-1055 (KPDFKR) the value was 30 Ru; for 6mer-2-1056 (RNDERK), 22 Ru; for 6mer-2-1057 (RKKKKK), 25 Ru.
